The assay concerns the target T1, dimeric cMet-Fc recombinant protein (rh cMet-Fc, R&D Systems ref. 358-MT/CF) (human, UniProt P08581 25-932).
T1 construct: extracellular domain; Bought reagent; also called cMet extracellular domain fusion protein; recombinant human cMet protein; not shown: Fc part
The experiment in a line: ELISA on coated dimeric cMet-Fc. As for the experimental part: Obtained hybridomas were initially screened by ELISA on the dimeric cMet-Fc recombinant protein. Briefly, the recombinant human cMet protein was coated overnight at 4° C. to Immulon II 96-well plates and, after a 1 h blocking step with a 0.5% gelatine solution, pure hybridoma supernatant was added for an additional 1 h at 37° C. Then plates were washed and a goat anti-mouse (Jackson) specific IgG HRP was added for 1 h at 37° C. Reaction development was performed using the TMB substrate solution. Then a second screen was performed by FACS analysis on […] cell line, that express moderate to high levels of cMet, to be sure that the produced antibodies will be able to also recognize the native receptor on tumor cells. For that purpose 2×10⁵ cells were incubated with either 10 μg/ml of m205A5, m227D3 or m10D₉ (IgG1 isotype control Mab) for 20 min at 4° C. After 3 washing in phosphate-buffered saline (PBS) supplemented with 1% BSA and 0.01% NaN₃, cells were incubated with secondary antibody Goat anti-mouse Alexa 488 (dilution 1/500) for 20 minutes at 4° C. After 3 additional washings in PBS supplemented with 1% BSA and 0.1% NaN₃, cells were analyzed by FACS (Facscalibur, Becton-Dickinson). At least 5000 cells were assessed to calculate the mean value of fluorescence intensity.

T1 sequence (P08581 25-932): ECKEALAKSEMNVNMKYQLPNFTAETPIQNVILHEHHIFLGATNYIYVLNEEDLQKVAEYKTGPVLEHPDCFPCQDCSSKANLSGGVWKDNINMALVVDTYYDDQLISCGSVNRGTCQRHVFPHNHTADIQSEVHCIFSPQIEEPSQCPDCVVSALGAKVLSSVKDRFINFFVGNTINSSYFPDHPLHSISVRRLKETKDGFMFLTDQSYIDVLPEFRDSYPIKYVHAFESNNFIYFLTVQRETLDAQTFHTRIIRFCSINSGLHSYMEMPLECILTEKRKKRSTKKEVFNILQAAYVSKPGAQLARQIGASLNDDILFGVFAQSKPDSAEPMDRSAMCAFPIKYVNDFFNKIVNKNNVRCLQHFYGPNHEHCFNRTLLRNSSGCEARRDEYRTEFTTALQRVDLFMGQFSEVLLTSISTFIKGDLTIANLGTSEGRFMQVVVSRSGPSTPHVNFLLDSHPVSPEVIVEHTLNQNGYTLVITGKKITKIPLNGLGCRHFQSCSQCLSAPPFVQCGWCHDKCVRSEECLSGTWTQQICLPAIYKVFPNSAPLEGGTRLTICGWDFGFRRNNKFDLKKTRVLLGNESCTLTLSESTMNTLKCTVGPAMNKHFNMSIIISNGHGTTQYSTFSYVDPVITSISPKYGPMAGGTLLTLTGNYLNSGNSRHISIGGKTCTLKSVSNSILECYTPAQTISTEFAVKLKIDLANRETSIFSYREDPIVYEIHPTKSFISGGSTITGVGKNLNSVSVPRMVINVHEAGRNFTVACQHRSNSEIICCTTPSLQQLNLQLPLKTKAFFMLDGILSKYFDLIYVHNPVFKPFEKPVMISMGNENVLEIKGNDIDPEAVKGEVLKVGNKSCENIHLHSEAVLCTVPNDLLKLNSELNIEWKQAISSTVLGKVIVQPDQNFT

B1: 205A5 monoclonal antibody (murine, secreted by hybridoma CNCM I-4246) (antibody, V domains shown)
VH: QVQLKQSGPGLVQPSQSLSITCTVSGFSLTDYGIQWVRQSPGQGLEWLGVIWRGGSTDYNAPFMSRLSITKDNSKSQVFFRMNSLQADDTAIYYCATSYYRYDGPFTYWGQGTLVTVSA
VL: NIVLTQSPASLAVSLGQRATISCRASESVDSNGNSFIHWYQQKPGQPPKLLIYVASKLESGVPARFSGSGSRTDFTLTIDPVEAEDVATYYCQQNNEYPLTFGAGTKLELK
notes: Whole murine monoclonal antibody from hybridoma; mouse IgG1 isotype controls were used beside it; also called m205A5; 205A5 Mab
B1: the binding result is on record as “binds”.

B2: 227D3 monoclonal antibody (murine, secreted by hybridoma CNCM I-4247) (antibody, V domains shown)
VH: EVKLVESGGDLVKPGGSLQLSCAASGFTFSSYAMSWVRQTPEMRLEWVASIMGGGTTYYPDSVKGRFTISRDIARNILNLQMSSLRSEDTAIYYCARGRDYGIRSYAMDYWGQGTSVTVSS
VL: DIVMTQAAFSNPVTLGTSVSISCRSSKSLLHSNGITYLYWYLQKPGQSPQLLIYQMSNLASGVPDRFSSSGSGTDFTLRISRVEAEDVGVYYCAQNLELPYTFGGGTKLEIK
notes: Whole murine monoclonal antibody from hybridoma; mouse IgG1 isotype controls were used beside it; also called m227D3; 227D3 Mab
As for B2, the binding result is listed as “binds”.

The values are drawn from patent publication US20130102494A1 (PIERRE FABRE MEDICAMENT, published 2013).
